{"source": "patent US20190241648A1", "about": "(STATEN BIOTECHNOLOGY B V, published 2019)", "binders": {"B1": {"name": "Llama antibody 5E5 (antibody, V domains shown)", "VH": "QLQLVESGGGLVQPGGSLRLSCAASGFTFGTYSMRWVRQVPRKALEWVSSISTDGGGTAYRDSVKGRFTISRDNAKNTLYLQMNNLKPEDTAIYYCVIAGYSDWGQGTQVTVSS", "VL": "ATMLTQSPGSLSVVPGESASISCKTSQGLVHSDGKTYFYWFLQKPGQSPQQLIYQVSNRASGVPDRFTGSGSGTDFTLKISGVKAEDAGVYYCAQGTYYPHTFGSGTRLEIK", "notes": "detected with goat anti-human IgG (Fc); also called mAb 5E5"}}, "assay_in_all_cases": "cyclic peptide substitution array", "key": {"[1]": {"target": "T1, ApoC3 peptide F61S (human, cyclic (thioether))", "T1 peptide": "DKSSEFWDLDPEV", "description": "(§1) S62 and D68 of mature huApoC3 were also highly conserved; substitution of S62 by A or V, and substitution of D68 by E or P, caused decrease of spot intensities by ˜60% or higher. […] Amino acid F64 was completely variable.\n(§2) Pre: staining of one of the ApoC3 peptide microarrays was done with the secondary antibody goat anti-human IgG (Fe) DyLight680 (1:5000) and control antibody mouse monoclonal anti-HA (12CA5) DyLight800 (1:2000) to investigate background interactions of the secondary antibody with the antigen-derived peptides that could interfere with the main assays. Subsequent incubation of other ApoC3 peptide microarrays with antibody samples was followed by staining with secondary and control antibodies as well as read-out at scanning intensities of 7/7 (red/green). The additional HA peptides framing the peptide arrays were stained as internal quality control to confirm the assay quality and the peptide microarray integrity."}, "[2]": {"target": "T2, ApoC3 peptide W65L (human, cyclic (thioether))", "T2 peptide": "DKFSEFLDLDPEV", "description": "as §1, §2"}, "[3]": {"target": "T3, ApoC3 peptide D66F (human, not fully specified; cyclic (thioether))", "T3 peptide": "DKFSEFWFLDPEV", "description": "as §1, §2"}, "[4]": {"target": "T4, ApoC3 peptide P69S (human, not fully specified; cyclic (thioether))", "T4 peptide": "DKFSEFWDLDSEV", "description": "as §1, §2"}, "[5]": {"target": "T5, ApoC3 peptide F61A (human, cyclic (thioether))", "T5 peptide": "DKASEFWDLDPEV", "description": "as §1, §2"}, "[6]": {"target": "T6, ApoC3 peptide P69D (human, not fully specified; cyclic (thioether))", "T6 peptide": "DKFSEFWDLDDEV", "description": "as §1, §2"}, "[7]": {"target": "T7, ApoC3 peptide W65C (human, not fully specified; cyclic (thioether))", "T7 peptide": "DKFSEFCDLDPEV", "description": "as §1, §2"}, "[8]": {"target": "T8, ApoC3 peptide F64I (human, thioether (positions not given here); not fully specified (bridges); also: cyclic (thioether), positions not given here)", "T8 peptide": "DKFSEIWDLDPEV", "description": "as §1, §2"}, "[9]": {"target": "T9, ApoC3 peptide F64R (human, thioether (positions not given here); not fully specified (bridges); also: cyclic (thioether), positions not given here)", "T9 peptide": "DKFSERWDLDPEV", "description": "as §1, §2"}, "[10]": {"target": "T10, ApoC3 peptide W65Q (human, cyclic (thioether))", "T10 peptide": "DKFSEFQDLDPEV", "description": "as §1, §2"}, "[11]": {"target": "T11, ApoC3 peptide P69M (human, not fully specified; cyclic (thioether))", "T11 peptide": "DKFSEFWDLDMEV", "description": "as §1, §2"}, "[12]": {"target": "T12, ApoC3 peptide V71E (human, thioether (positions not given here); also: cyclic (thioether), ring places not given here)", "T12 peptide": "DKFSEFWDLDPEE", "description": "as §1, §2"}, "[13]": {"target": "T13, ApoC3 peptide L67K (human, thioether (positions not given here); not fully specified (bridges); also: thioether between a C-terminal Cys side chain and a modified N-terminus, the Cys is not in the chain)", "T13 peptide": "DKFSEFWDKDPEV", "description": "as §1, §2"}, "[14]": {"target": "T14, ApoC3 peptide F61Y (human, cyclic (thioether))", "T14 peptide": "DKYSEFWDLDPEV", "description": "as §1, §2"}, "[15]": {"target": "T15, ApoC3 peptide P69L (human, not fully specified; cyclic (thioether))", "T15 peptide": "DKFSEFWDLDLEV", "description": "as §1, §2"}, "[16]": {"target": "T16, ApoC3 peptide D59T (human, thioether (positions not given here); not fully specified (C-terminus, bridges); also: cyclised via thioether between a C-terminal Cys and a modified N-terminus, the Cys and the N-terminal …)", "T16 peptide": "TKFSEFWDLDPEV", "description": "as §1, §2"}, "[17]": {"target": "T17, ApoC3 peptide D66L (human, not fully specified; cyclic (thioether))", "T17 peptide": "DKFSEFWLLDPEV", "description": "as §1, §2"}, "[18]": {"target": "T18, ApoC3 peptide F64H (human, thioether (positions not given here); not fully specified (bridges); also: cyclic (thioether), positions not given here)", "T18 peptide": "DKFSEHWDLDPEV", "description": "as §1, §2"}, "[19]": {"target": "T19, ApoC3 peptide P69C (human, thioether (positions not given here); not fully specified (bridges); also: thioether from modified N-terminus to C-terminal Cys (Cys not in chain))", "T19 peptide": "DKFSEFWDLDCEV", "description": "as §1, §2"}, "[20]": {"target": "T20, ApoC3 peptide D68R (human, cyclic (thioether))", "T20 peptide": "DKFSEFWDLRPEV", "description": "as §1, §2"}, "[21]": {"target": "T21, ApoC3 peptide F61M (human, cyclic (thioether))", "T21 peptide": "DKMSEFWDLDPEV", "description": "as §1, §2"}, "[22]": {"target": "T22, ApoC3 peptide E70P (human, cyclic (thioether))", "T22 peptide": "DKFSEFWDLDPPV", "description": "as §1, §2"}, "[23]": {"target": "T23, ApoC3 peptide L67E (human, thioether (positions not given here); not fully specified (bridges); also: thioether between a C-terminal Cys side chain and a modified N-terminus, the Cys is not in the chain)", "T23 peptide": "DKFSEFWDEDPEV", "description": "as §1, §2"}, "[24]": {"target": "T24, ApoC3 peptide F61H (human, cyclic (thioether))", "T24 peptide": "DKHSEFWDLDPEV", "description": "as §1, §2"}, "[25]": {"target": "T25, ApoC3 peptide L67A (human, not fully specified; cyclic (thioether))", "T25 peptide": "DKFSEFWDADPEV", "description": "as §1, §2"}, "[26]": {"target": "T26, ApoC3 peptide D66T (human, not fully specified; cyclic (thioether))", "T26 peptide": "DKFSEFWTLDPEV", "description": "as §1, §2"}, "[27]": {"target": "T27, ApoC3 peptide E63M (human, cyclic (thioether))", "T27 peptide": "DKFSMFWDLDPEV", "description": "as §1, §2"}, "[28]": {"target": "T28, ApoC3 peptide S62L (human, thioether (positions not given here); also: cyclic (thioether), ring places not given here)", "T28 peptide": "DKFLEFWDLDPEV", "description": "as §1, §2"}, "[29]": {"target": "T29, ApoC3 peptide P69A (human, thioether (positions not given here); not fully specified (bridges); also: thioether from modified N-terminus to C-terminal Cys (Cys not in chain))", "T29 peptide": "DKFSEFWDLDAEV", "description": "as §1, §2"}, "[30]": {"target": "T30, ApoC3 peptide E70H (human, cyclic (thioether))", "T30 peptide": "DKFSEFWDLDPHV", "description": "as §1, §2"}}, "note": "Ends that are not written are not given here."}
{"binder": "B1", "values": [{"measurement": "% of binding to wild-type peptide", "setting": "[1]", "value": 22.6, "unit": "%"}, {"measurement": "% of binding to wild-type peptide", "setting": "[2]", "value": 0, "unit": "%"}, {"measurement": "% of binding to wild-type peptide", "setting": "[3]", "value": 0, "unit": "%"}, {"measurement": "% of binding to wild-type peptide", "setting": "[4]", "value": 86.9, "unit": "%"}, {"measurement": "% of binding to wild-type peptide", "setting": "[5]", "value": 17.4, "unit": "%"}, {"measurement": "% of binding to wild-type peptide", "setting": "[6]", "value": 21.6, "unit": "%"}, {"measurement": "% of binding to wild-type peptide", "setting": "[7]", "value": 0.08, "unit": "%"}, {"measurement": "% of binding to wild-type peptide", "setting": "[8]", "value": 69.3, "unit": "%"}, {"measurement": "% of binding to wild-type peptide", "setting": "[9]", "value": 73.7, "unit": "%"}, {"measurement": "% of binding to wild-type peptide", "setting": "[10]", "value": 0, "unit": "%"}, {"measurement": "% of binding to wild-type peptide", "setting": "[11]", "value": 29.3, "unit": "%"}, {"measurement": "% of binding to wild-type peptide", "setting": "[12]", "value": 127, "unit": "%"}, {"measurement": "% of binding to wild-type peptide", "setting": "[13]", "value": 45.6, "unit": "%"}, {"measurement": "% of binding to wild-type peptide", "setting": "[14]", "value": 126, "unit": "%"}, {"measurement": "% of binding to wild-type peptide", "setting": "[15]", "value": 16.7, "unit": "%"}, {"measurement": "% of binding to wild-type peptide", "setting": "[16]", "value": 94.9, "unit": "%"}, {"measurement": "% of binding to wild-type peptide", "setting": "[17]", "value": 0, "unit": "%"}, {"measurement": "% of binding to wild-type peptide", "setting": "[18]", "value": 84.5, "unit": "%"}, {"measurement": "% of binding to wild-type peptide", "setting": "[19]", "value": 3.72, "unit": "%"}, {"measurement": "% of binding to wild-type peptide", "setting": "[20]", "value": 0, "unit": "%"}, {"measurement": "% of binding to wild-type peptide", "setting": "[21]", "value": 68.7, "unit": "%"}, {"measurement": "% of binding to wild-type peptide", "setting": "[22]", "value": 55.2, "unit": "%"}, {"measurement": "% of binding to wild-type peptide", "setting": "[23]", "value": 0.45, "unit": "%"}, {"measurement": "% of binding to wild-type peptide", "setting": "[24]", "value": 12.1, "unit": "%"}, {"measurement": "% of binding to wild-type peptide", "setting": "[25]", "value": 21, "unit": "%"}, {"measurement": "% of binding to wild-type peptide", "setting": "[26]", "value": 0, "unit": "%"}, {"measurement": "% of binding to wild-type peptide", "setting": "[27]", "value": 13.1, "unit": "%"}, {"measurement": "% of binding to wild-type peptide", "setting": "[28]", "value": 3.83, "unit": "%"}, {"measurement": "% of binding to wild-type peptide", "setting": "[29]", "value": 25.7, "unit": "%"}, {"measurement": "% of binding to wild-type peptide", "setting": "[30]", "value": 50.5, "unit": "%"}]}
